We go through two proteins from paper PMC10897367, “Functional and structural asymmetry suggest a unifying principle for catalysis in membrane-bound pyrophosphatases” (EMBO Reports, 2024).

Series [1] deals with the molecule itself. Description: crystal structure; time-resolved cryo-trapping: TmPPase in OGNG crystallised with K4PPi and without Na+, soaked in a Na+ trigger solution for 0-3600 s, flash cooled; molecular replacement with 4AV3.
Series [2] concerns the molecule itself. Briefly: crystal structure; PaPPase in DM with 2 mM IDP, vapour diffusion, 30-33% PEG 400, 0.1 M MES pH 6.5, 0.05 M LiSO4, 0.05 M NaCl, 20 °C; eight datasets combined, molecular replacement with a 5LZQ-based model.

B1: K+-dependent Na+-pumping membrane-bound pyrophosphatase from Thermotoga maritima (TmPPase), wild type (enzyme, UniProt Q9S5X0 1-726, looked up)
chain: MYVAALFFLIPLVALGFAAANFAAVVRKPEGTERMKEISSYIRSGADSFLAHETKAIFKVAIVIAILLMIFTTWQTGVAFLLGAVMSASAGIVGMKMATRANVRVAEAARTTKKIGPALKVAYQGGSVMGLSVGGFALLGLVLVYLIFGKWMGQVDNLNIYTNWLGINFVPFAMTVSGYALGCSIIAMFDRVGGGVYTKAADMAADLVGKTELNLPEDDPRNPATIADNVGDNVGDVAGLGADLLESFVGAIVSSIILASYMFPIYVQKIGENLVHQVPKETIQALISYPIFFALVGLGCSMLGILYVIVKKPSDNPQRELNISLWTSALLTVVLTAFLTYFYLKDLQGLDVVGFRFGAISPWFSAIIGIFSGILIGFWAEYYTSYRYKPTQFLSKSSIEGTGMVISNGLSLGMKSVFPPTLTLVLGILFADYFAGLYGVAIAALGMLSFVATSVSVDSYGPIADNAGGISEMCELDPEVRKITDHLDAVGNTTAAIGKGFAIGSAIFAALSLFASYMFSQISPSDIGKPPSLVLLLNMLDARVIAGALLGAAITYYFSGYLISAVTKAAMKMVDEIRRQAREIPGLLEGKAKPDYNRCIEITSDNALKQMGYPAFIAILTPLVTGFLLGAEFVGGVLIGTVLSGAMLAILTANSGGAWDNAKKYLEAGNLEGYGKGSEPHKALVIGDTVGDPLKDTVGPSLDILIKIMSVVSVIAVSIFKHVHLF
notes: No tag cleavage is mentioned; also called K+-dependent Na+-PPase; Na+-PPase; source: S. cerevisiae BJ1991, purified (hot-solve solubilisation, nickel-NTA; OGNG)
As for B1, in series [1], the binding result is given as “binds”.

B2: K+-independent H+-pumping membrane-bound pyrophosphatase from Pyrobaculum aerophilum (PaPPase), wild type (enzyme, UniProt Q8ZWI8 1-721, looked up)
chain: MNMISYALLGVILGISGVIYAVYLAVWVLRQDPGNEKMRFISQAIATGARAYLFRQYRTLAVLLVILAVLILVAIDMPRRTFGLTALAFIVGALGSMLAGYLGMYVTTRSASRVAQAAATGGMGKALLVSWRAGAVMGLSLASIALLLISGFYLVFRSVLPDDWAVPLVALGFGASLVTLFMRVGGGIYTKAADLGADLVGKVEAGIPEDDPRNPGVIADNVGDNVGDVAGMAADVYESYIVTVTAAIFLAAILGLPTQFIEAIILFAALALVATFAGVNLLKTTGVKHPLSSISLAIYATIGLSVVLFFIGAFTLGLDSTKALALAATTSLGAVIAPLIVKITDYYTSYNYGPVRKIAEQAKISPATVIITGYGVGLMSAIPVIAVIVAVLGISYMIGYYTVPVSGFGELSKYLAGIFGTAMASVGLLVVAGIIITADSYGPVSDNAGGVVEMAGLPDEVREITDVLDSVGNTTKATTKGYAIASAALAALVLFIALIFEIVYSASKILGKGIVDMISESLSGLQLINANVLIGAFLGVALVYFFSSRTLEAVGRTAMEIVEEIRRQFREKPGILEWKEQPDYARVVDIATRRALGEFLIPGLAAIVLPLITGLLLGWNALAGLIMGAIVAGVPRALLMANAGGAWDNAKKYIEIQGLKKTEMHKAAVIGDTVGDPMKDTVGPSLNPLIKVLNTLSVVFTYVIVSTNIALGIWPSGLLPF
notes: No tag cleavage is mentioned; also called PaPPase:Mg5IDP; K+-independent H+-PPase; source: S. cerevisiae BJ1991, purified (hot-solve solubilisation, nickel-NTA; DM for crystals)
With B2, the binding result in series [2] is listed as “binds”.
